Assay results published in patent US20260250378A1.

What was measured:
[1] = molecular target: T1, purified fragment of human CNX containing Amino acids 1-481 fused to human FC region (FC-CNX) (human) (UniProt P27824); experiment: BLI (Octet), scFv on penta-His sensor, FC-CNX 90, 30, 10, 3.3 nM; printed without the letter E
T1 sequence (looked up): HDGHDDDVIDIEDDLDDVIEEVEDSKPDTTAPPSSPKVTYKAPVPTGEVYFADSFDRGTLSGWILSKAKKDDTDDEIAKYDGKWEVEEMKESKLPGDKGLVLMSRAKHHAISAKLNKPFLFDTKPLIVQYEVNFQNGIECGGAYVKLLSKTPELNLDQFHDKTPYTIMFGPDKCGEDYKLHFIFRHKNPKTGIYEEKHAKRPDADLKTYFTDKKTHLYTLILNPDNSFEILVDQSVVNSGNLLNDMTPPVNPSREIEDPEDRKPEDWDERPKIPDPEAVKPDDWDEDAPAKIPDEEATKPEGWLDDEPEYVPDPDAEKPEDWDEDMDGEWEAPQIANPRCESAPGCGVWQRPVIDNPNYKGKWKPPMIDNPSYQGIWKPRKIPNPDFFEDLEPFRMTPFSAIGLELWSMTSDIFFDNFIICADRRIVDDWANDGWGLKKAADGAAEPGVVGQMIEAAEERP

[2] = molecular target: T1, purified fragment of human CNX containing Amino acids 1-481 fused to human FC region (FC-CNX) (human); experiment: BLI (Octet), scFv on penta-His sensor, FC-CNX 90, 30, 10, 3.3 nM
[3] = molecular target: T1, purified fragment of human CNX containing Amino acids 1-481 fused to human FC region (FC-CNX) (human); experiment: BLI (Octet), scFv on penta-His sensor, FC-CNX 90, 30, 10, 3.3 nM; same value in the inset box of the Fitting View (Full X^2 0.108, Full R^2 0.9955)

kon [1]: 1.14e+06 M⁻¹ s⁻¹
koff [2]: 0.000149 s⁻¹
Kd [3]: 0.131 nM
B1: scFv clone 8 (C008) (scFv, part only; not given: His and myc tags, phage protein, not shown: another chain or arm of the molecule; large carriers; small tags and cut ends)
scFv: QVQLVQSGGGVVQPGRSLRLSCAASGFTVSSNYMSWVRQAPGKGLEWVSVIYSGGSTYYADSVKGRFTISRDNSKNTLYLQMNSLRAEDTAVYYCARGSRAVAGAFDYWGQGTLVTVSSGGGGSGGGGSGGGGSYSELTQDPAVSVALGQTVRITCQGDSLRTYYANWYQQKPGQAPVLVMYAKNHRPSGIPDRFSGSSSGNTASLTITGAQAEDEADYYCGSRDSSGNHPVFGGGTKVTVL
